From publication PMC9727770 (2023)

B1: Regn-10933 (antibody, V domains shown)
VH: QVQLVESGGGLVKPGGSLRLSCAASGFTFSDYYMSWIRQAPGKGLEWVSYITYSGSTIYYADSVKGRFTISRDNAKSSLYLQMNSLRAEDTAVYYCARDRGTTMVPFDYWGQGTLVTVSS
VL: DIQMTQSPSSLSASVGDRVTITCQASQDITNYLNWYQQKPGKAPKLLIYAASNLETGVPSRFSGSGSGTDFTFTISGLQPEDIATYYCQQYDNLPLTFGGGTKVEIK
B2: Eli Lilly Ly-CoV016 (antibody, V domains shown)
VH: EVQLVESGGGLVQPGGSLRLSCAASGFTVSSNYMSWVRQAPGKGLEWVSVIYSGGSTFYADSVKGRFTISRDNSMNTLFLQMNSLRAEDTAVYYCARVLPMYGDYLDYWGQGTLVTVSS
VL: not shown
B3: Regn-10987 (antibody, V domains shown)
VH: QVQLVESGGGVVQPGRSLRLSCAASGFTFSNYAMYWVRQAPGKGLEWVAVISYDGSNKYYADSVKGRFTISRDNSKNTLYLQMNSLRTEDTAVYYCASGSDYGDYLLVYWGQGTLVTVSS
VL: QSALTQPASVSGSPGQSITISCTGTSSDVGGYNYVSWYQQHPGKAPKLMIYDVSKRPSGVSNRFSGSKSGNTASLTISGLQSEDEADYYCNSLTSISTWVFGGGTKLTVL

target: RBD of the SARS-CoV-2 L strain spike protein, soluble (SARS-CoV-2 (L strain), UniProt P0DTC2 319-541); assay: BLI

Binder | Kd
B1 | 14.4 nM
B2 | 203 nM
B3 | 74.2 nM
